# Experimental data from patent US20030175904A1.
# Experiments:
# Experiment in all cases: cell-based or functional assay
# [1] = target: human PERV-A receptor PHuR-A2 (human) (UniProt Q9NWF4)
# [2] = target: baboon PERV-A receptor PBaR-A1 (baboon) (UniProt Q863Y8)
# [3] = target: human PERV-A receptor PHuR-A1 (human) (UniProt Q9HAB3)
# UniProt Q9HAB3, sequence (Q9HAB3 whole entry G341S): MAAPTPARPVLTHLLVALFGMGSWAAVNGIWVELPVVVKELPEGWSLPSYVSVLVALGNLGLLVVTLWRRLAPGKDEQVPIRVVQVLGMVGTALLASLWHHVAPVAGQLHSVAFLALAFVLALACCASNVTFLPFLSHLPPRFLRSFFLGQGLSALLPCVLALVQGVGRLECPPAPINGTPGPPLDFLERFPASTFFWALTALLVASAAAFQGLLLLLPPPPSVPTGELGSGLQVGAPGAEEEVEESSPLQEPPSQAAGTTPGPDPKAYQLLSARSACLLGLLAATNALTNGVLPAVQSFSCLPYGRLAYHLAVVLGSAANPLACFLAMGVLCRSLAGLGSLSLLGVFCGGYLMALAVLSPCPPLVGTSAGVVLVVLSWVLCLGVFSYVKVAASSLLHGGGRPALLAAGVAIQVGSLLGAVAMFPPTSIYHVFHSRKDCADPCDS
# UniProt Q9NWF4, sequence (Q9NWF4 whole entry Q70R/V296M): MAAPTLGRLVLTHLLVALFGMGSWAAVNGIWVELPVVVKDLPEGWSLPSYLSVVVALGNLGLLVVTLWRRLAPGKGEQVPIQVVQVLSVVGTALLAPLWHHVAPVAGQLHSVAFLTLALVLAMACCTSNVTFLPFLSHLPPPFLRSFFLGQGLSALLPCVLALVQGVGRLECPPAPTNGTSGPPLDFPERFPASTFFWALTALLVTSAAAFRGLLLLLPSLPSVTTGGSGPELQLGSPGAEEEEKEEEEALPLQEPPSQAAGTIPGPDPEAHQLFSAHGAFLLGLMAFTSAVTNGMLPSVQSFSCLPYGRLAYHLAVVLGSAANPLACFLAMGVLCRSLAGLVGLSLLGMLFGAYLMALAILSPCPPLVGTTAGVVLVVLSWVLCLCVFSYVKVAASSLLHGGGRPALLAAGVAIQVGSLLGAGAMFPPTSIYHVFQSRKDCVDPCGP
# UniProt Q863Y8, sequence (Q863Y8 whole entry): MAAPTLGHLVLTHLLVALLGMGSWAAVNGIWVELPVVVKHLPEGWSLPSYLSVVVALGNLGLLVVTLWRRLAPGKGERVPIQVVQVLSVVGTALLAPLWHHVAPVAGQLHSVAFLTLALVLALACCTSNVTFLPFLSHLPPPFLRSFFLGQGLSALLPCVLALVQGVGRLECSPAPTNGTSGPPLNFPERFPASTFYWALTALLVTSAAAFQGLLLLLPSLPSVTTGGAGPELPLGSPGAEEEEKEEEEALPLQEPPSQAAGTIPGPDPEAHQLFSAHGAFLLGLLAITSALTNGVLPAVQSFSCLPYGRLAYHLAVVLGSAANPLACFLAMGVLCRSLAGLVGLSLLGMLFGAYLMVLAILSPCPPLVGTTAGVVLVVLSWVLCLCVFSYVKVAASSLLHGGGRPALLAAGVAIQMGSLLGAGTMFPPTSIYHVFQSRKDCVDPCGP
substance,measurement,setting,value
"PERV-A 14/220 envelope (ENV) protein, carried on replication competent recombinant PERV-A/PERV-C virus particles",Approximate LacZ pseudotype titer IU/ml,[1],20000 IU/ml
same,Approximate LacZ pseudotype titer IU/ml,[2],6000 IU/ml
same,Approximate LacZ pseudotype titer IU/ml,[3],4000 IU/ml
TelCeB PERV-A18 LacZ pseudotype (PERV-A envelope),Approximate LacZ pseudotype titer IU/ml,[1],1000 IU/ml
same,Approximate LacZ pseudotype titer IU/ml,[3],6 IU/ml
